In publication PMC2845550, “Heterologous expression of leader-less pga gene in Pichia pastoris: intracellular production of prokaryotic enzyme” (BMC Biotechnology, 2010):

Legend:
purified protein [1] = substrate: O=C(Cc1ccccc1)Nc1ccc([N+](=O)[O-])c(C(=O)O)c1; test: purified protein; assay type: biochemical, Escherichia coli; conditions: 50 mM phosphate buffer, pH 8, 37 °C, substrate 7-2000 μM
purified protein [2] = substrate: CC1(C)S[C@@H]2[C@H](NC(=O)Cc3ccccc3)C(=O)N2[C@H]1C(=O)O; test: purified protein; assay type: biochemical, Escherichia coli; conditions: 37 °C, substrate 5-100 μM

B1: PGAEc (Escherichia coli) (protein)
chain 1: EQSSSEIKIVRDEYGMPHIYANDTWHLFYGYGYVVAQDRLFQMEMARRSTQGTVAEVLGKDFVKFDKDIRRNYWPDAIRAQIAALSPEDMSILQGYADGMNAWIDKVNTNPETLLPKQFNTFGFTPKRWEPFDVAMIFVGTMANRFSDSTSEIDNLALLTALKDKYGVSQGMAVFNQLKWLVNPSAPTTIAVQESNYPLKFNQQNSQTA
chain 2: SNMWVIGKSKAQDAKAIMVNGPQFGWYAPAYTYGIGLHGAGYDVTGNTPFAYPGLVFGHNGVISWGSTAGFGDDVDIFAERLSAEKPGYYLHNGKWVKMLSREETITVKNGQAETFTVWRTVHGNILQTDQTTQTAYAKSRAWDGKEVASLLAWTHQMKAKNWQEWTQQAAKQALTINWYYADVNGNIGYVHTGAYPDRQSGHDPRLPVPGTGKWDWKGLLPFEMNPKVYNPQSGYIANWNNSPQKDYPASDLFAFLWGGADRVTEIDRLLEQKPRLTADQAWDVIRQTSRQDLNLRLFLPTLQAATSGLTQSDPRRQLVETLTRWDGINLLNDDGKTWQQPGSAILNVWLTSMLKRTVVAAVPMPFDKWYSASGYETTQDGPTGSLNISVGAKILYEAVQGDKSPIPQAVDLFAGKPQQEVVLAALEDTWETLSKRYGNNVSNWKTPAMALTFRANNFFGVPQAAAEETRHQAEYQNRGTENDMIVFSPTTSDRPVLAWDVVAPGQSGFIAPDGTVDKHYEDQLKMYENFGRKSLWLTKQDVEAHKESQEVLHVQR
notes: mature periplasmic heterodimer cut from 846-residue preproprotein; homologous expression in E. coli RE3(pKA18), untagged
Km (purified protein [1]): 28 µM
Vmax (purified protein [1]): 15000 µM/min
kcat (purified protein [1]): 1.6 s⁻¹
Km (purified protein [2]): 34 µM
kcat (purified protein [2]): 13.6 s⁻¹
